This passage reports Kd and stoichiometry N results from publication doi:10.1101/2020.04.07.030676.

In the test the target is soluble αβ-tubulin heterodimer (bovine) (UniProt Q6B856). As to the kind of experiment: ITC.

B1: MEKK1 TOG domain, MEKK1(542–888) (domain or fragment)
chain: THYGTQQIPPAYKDLAEPWIQVFGMELVGCLFSRNWNVREMALRRLSHDVSGALLLANGESTGNSGGSSGSSPSGGATSGSSQTSISGDVVEACCSVLSMVCADPVYKVYVAALKTLRAMLVYTPCHSLAERIKLQRLLQPVVDTILVKCADANSRTSQLSISTLLELCKGQAGELAVGREILKAGSIGIGGVDYVLNCILGNQTESNNWQELLGRLCLIDRLLLEFPAEFYPHIVSTDVSQAEPVEIRYKKLLSLLTFALQSIDNSHSMVGKLSRRIYLSSARMVTTVPHVFSKLLEMLSVSSSTHFTRMRRRLMAIADEVEIAEAIQLGVEDTLDGQQDSFLQAS
A word on the Kd: it is the constant that tells how readily two partners part at equilibrium. A low value points to higher affinity. The stoichiometry N is a count of units in the complex or per binding partner. Turning to B1, the Kd came to 630 nM and the stoichiometry N was 1.
